# B1: Calcium uptake protein 1, mitochondrial (Homo sapiens), Q9BPX6 (parent)
# chain: MFRLNSLSALAELAVGSRWYHGGSQPIQIRRRLMMVAFLGASAVTASTGLLWKRAHAESPPCVDNLKSDIGDKGKNKDEGDVCNHEKKTADLAPHPEEKKKKRSGFRDRKVMEYENRIRAYSTPDKIFRYFATLKVISEPGEAEVFMTPEDFVRSITPNEKQPEHLGLDQYIIKRFDGKKISQEREKFADEGSIFYTLGECGLISFSDYIFLTTVLSTPQRNFEIAFKMFDLNGDGEVDMEEFEQVQSIIRSQTSMGMRHRDRPTTGNTLKSGLCSALTTYFFGADLKGKLTIKNFLEFQRKLQHDVLKLEFERHDPVDGRITERQFGGMLLAYSGVQSKKLTAMQRQLKKHFKEGKGLTFQEVENFFTFLKNINDVDTALSFYHMAGASLDKVTMQQVARTVAKVELSDHVCDVVFALFDCDGNGELSNKEFVSIMKQRLMRGLEKPKDMGFTRLMQAMWKCAQETAWDFALPKQ
# partner: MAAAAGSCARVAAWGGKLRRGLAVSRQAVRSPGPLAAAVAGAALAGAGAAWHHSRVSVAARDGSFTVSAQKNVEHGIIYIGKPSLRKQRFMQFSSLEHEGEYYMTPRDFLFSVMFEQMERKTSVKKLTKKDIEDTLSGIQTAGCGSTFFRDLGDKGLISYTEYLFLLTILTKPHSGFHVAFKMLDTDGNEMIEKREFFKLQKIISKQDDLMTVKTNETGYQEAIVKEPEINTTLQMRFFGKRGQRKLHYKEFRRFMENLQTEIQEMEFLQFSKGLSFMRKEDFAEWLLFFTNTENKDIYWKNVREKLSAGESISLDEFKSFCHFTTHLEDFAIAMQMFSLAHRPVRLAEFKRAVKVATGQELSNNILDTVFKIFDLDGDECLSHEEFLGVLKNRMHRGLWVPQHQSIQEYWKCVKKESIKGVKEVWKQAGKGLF
# B2: Calcium uptake protein 2, mitochondrial (Homo sapiens), Q8IYU8 (parent)
# chain: B1 partner
# Variants of: B1
# Settings: with micu2_human MICU2, Q8IYU8
row,effect of a mutation on the interaction,Variant
1,with no effect,MFRLNSLSALAELAVGSRWYHGGSQPIQIRRRLMMVAFLGASAVTASTGLLWKRAHAESPPCVDNLKSDIGDKGKNKDEGDVCNHEKKTADLAPHPEEKKKKRSGFRDRKVMEYENRIRAYSTPDKIFRYFATLKVISEPGEAEVFMTPEDFVRSITPNEKQPEHLGLDQYIIKRFDGKKISQEREKFADEGSIFYTLGECGLISFSDYIFLTTVLSTPQRNFEIAFKMFDLNGDGEVDMEEFEQVQSIIRSQTSMGMRHRDRPTTGNTLKSGLCSALTTYFFGADLKGKLTIKNFLEFQRKLQHDVLKLEFERHDPVDGRITERQFGGMLLAYSGVQSKKLTAMQRQLKKHFKEGKGLTFQEVENFFTFLKNINDVDTALSFYHMAGASLDKVTMQQVARTVAKVELSDHVCDVVFALFDCDGNGELSNKEFVSIMKQRLMRGLEKPKDMGFTRLMQAMWKSAQETAWDFALPKQ [C463S]

# Variants of: B2
# Settings: with micu1_human MICU1, Q9BPX6
row,effect of a mutation on the interaction,Variant
1,disrupting interaction strength,MAAAAGSCARVAAWGGKLRRGLAVSRQAVRSPGPLAAAVAGAALAGAGAAWHHSRVSVAARDGSFTVSAQKNVEHGIIYIGKPSLRKQRFMQFSSLEHEGEYYMTPRDFLFSVMFEQMERKTSVKKLTKKDIEDTLSGIQTAGCGSTFFRDLGDKGLISYTEYLFLLTILTKPHSGFHVAFKMLDTDGNEMIEKREFFKLQKIISKQDDLMTVKTNETGYQEAIVKEPEINTTLQMRFFGKRGQRKLHYKEFRRFMENLQTEIQEMEFLQFSKGLSFMRKEDFAEWLLFFTNTENKDIYWKNVREKLSAGESISLDEFKSFCHFTTHLEDFAIAMQMFSLAHRPVRLAEFKEAVKVATGQELSNNILDTVFKIFDLDGDECLSHEEFLGVLKNRMHRGLWVPQHQSIQEYWKCVKKESIKGVKEVWKQAGKGLF [R352E]

# Reference: IntAct's records for PubMed 32494073
